Data published in US20250066455A1 (published 2025).

Biological target: SARS-CoV-2 WT Spike (SARS-CoV-2, UniProt P0DTC2 14-1208)
Assay: BLI

B1: REGN10933 (antibody, V domains shown)
VH: QVQLVESGGGLVKPGGSLRLSCAASGFTFSDYYMSWIRQAPGKGLEWVSYITYSGSTIYYADSVKGRFTISRDNAKSSLYLQMNSLRAEDTAVYYCARDRGTTMVPFDYWGQGTLVTVSS
VL: DIQMTQSPSSLSASVGDRVTITCQASQDITNYLNWYQQKPGKAPKLLIYAASNLETGVPSRFSGSGSGTDFTFTISGLQPEDIATYYCQQYDNLPLTFGGGTKVEIKR
  Kd: < 0.01 nM

B2: REGN10987 (antibody, V domains shown)
VH: QVQLVESGGGVVQPGRSLRLSCAASGFTFSNYAMYWVRQAPGKGLEWVAVISYDGSNKYYADSVKGRFTISRDNSKNTLYLQMNSLRTEDTAVYYCASGSDYGDYLLVYWGQGTLVTVSS
VL: QSALTQPASVSGSPGQSITISCTGTSSDVGGYNYVSWYQQHPGKAPKLMIYDVSKRPSGVSNRFSGSKSGNTASLTISGLQSEDEADYYCNSLTSISTWVFGGGTKLTVLR
  Kd: < 0.01 nM
